Test results as given in US20090203610A1, “METHODS OF TREATING OBESITY OR DIABETES USING NT-4/5” (RINAT NEUROSCIENCE CORPORATION, priority 2004, published 2009).

Key:
p75NTR = target: T1, p75NTR (Homo sapiens, UniProt P08138); conditions: low affinity receptor (LNGFR, p75NTR); cited from earlier work
T1 sequence (P08138 29-427): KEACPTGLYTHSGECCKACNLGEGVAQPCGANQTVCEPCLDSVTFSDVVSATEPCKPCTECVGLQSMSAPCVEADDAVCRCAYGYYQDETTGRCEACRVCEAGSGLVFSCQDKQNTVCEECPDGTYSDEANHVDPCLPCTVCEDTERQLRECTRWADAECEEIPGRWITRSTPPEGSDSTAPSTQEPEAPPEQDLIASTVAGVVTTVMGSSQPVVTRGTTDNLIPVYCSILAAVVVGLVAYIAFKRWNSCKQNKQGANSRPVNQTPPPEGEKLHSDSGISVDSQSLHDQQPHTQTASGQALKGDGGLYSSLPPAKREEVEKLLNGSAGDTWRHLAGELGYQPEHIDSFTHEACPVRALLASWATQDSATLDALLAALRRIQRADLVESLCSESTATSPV

human TrkC = target: T2, human TrkC (Homo sapiens, UniProt Q16288); test: Receptor tyrosine phosphorylation in trkC expressing cell line; format: cell-based
T2 construct: expressed in transfected cells
T2 sequence (Q16288 32-839): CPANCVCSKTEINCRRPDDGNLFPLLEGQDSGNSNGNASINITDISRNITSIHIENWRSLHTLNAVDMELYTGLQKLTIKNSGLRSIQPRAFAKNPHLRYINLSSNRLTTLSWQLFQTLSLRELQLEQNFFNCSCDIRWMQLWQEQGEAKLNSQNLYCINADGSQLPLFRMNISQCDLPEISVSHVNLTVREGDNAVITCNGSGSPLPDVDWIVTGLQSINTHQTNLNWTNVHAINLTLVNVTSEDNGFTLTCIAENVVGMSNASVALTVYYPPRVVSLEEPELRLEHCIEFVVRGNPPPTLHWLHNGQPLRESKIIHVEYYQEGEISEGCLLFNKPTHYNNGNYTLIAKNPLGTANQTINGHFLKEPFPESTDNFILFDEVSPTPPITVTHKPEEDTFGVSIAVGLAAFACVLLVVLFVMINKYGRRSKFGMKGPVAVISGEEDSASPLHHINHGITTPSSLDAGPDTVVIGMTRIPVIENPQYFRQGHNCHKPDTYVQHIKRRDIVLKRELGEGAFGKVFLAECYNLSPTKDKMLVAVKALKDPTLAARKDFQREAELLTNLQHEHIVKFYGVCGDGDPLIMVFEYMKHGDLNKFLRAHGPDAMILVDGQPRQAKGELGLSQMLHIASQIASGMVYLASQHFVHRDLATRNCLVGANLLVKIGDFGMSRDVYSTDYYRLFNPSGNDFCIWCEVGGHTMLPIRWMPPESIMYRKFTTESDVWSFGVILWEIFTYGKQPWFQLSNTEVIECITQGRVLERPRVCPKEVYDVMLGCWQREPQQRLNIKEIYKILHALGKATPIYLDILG
Description: (§1) Assays of TrkB specific activation by pegylated NT-4/5: Stable cell lines expressing human TrkA, TrkB or TrkC were used to determine the functional activity, i.e. receptor phosphorylation, of NT-4/5 and pegylated NT-4/5 as previously described (Sadick et al. Experimental Cell Research 234: 354-361, 1997).
as §1, with “and different forms of” for “and”

DIO mice [1] = test: NT-4/5 versus BDNF on body weight and food intake of DIO mice (Example 10); format: in vivo; conditions: 2 mg/kg i.v.
Description: (§2) Test animals: Mice with diet induced obesity (DIO) were used in this study. 22 male C57BL/6J mice were weaned at 4 weeks of age. Immediately after weaning they were put on 58% high fat diet (D12331i, Research Diet) through out the study. The DIO mice at 13 weeks of age weighing in the range of 28-40 g were used in this study.
Administration of NT-4/5 and BDNF: NT-4/5 was produced was produced as described in U.S. Pat. No. 6,184,360. The recombinant human BDNF was obtained from PeproTech Inc. (Rocky Hill, N.J.).
The mice were divided into 3 groups of equivalent body weight distribution (7-8 mice per group). Each group received 2 weekly intravenous doses of either vehicle, 2 mg/kg of NT-4/5 or 2 mg/kg of BDNF, respectively. Body weight and food intake were taken the day before treatment started (day 0) and followed subsequently on a daily basis.

human TrkA = target: T3, human TrkA (Homo sapiens, UniProt P04629); test: Receptor tyrosine phosphorylation in trkA expressing cell line; format: cell-based
T3 construct: expressed in transfected cells
T3 sequence (P04629 33-796): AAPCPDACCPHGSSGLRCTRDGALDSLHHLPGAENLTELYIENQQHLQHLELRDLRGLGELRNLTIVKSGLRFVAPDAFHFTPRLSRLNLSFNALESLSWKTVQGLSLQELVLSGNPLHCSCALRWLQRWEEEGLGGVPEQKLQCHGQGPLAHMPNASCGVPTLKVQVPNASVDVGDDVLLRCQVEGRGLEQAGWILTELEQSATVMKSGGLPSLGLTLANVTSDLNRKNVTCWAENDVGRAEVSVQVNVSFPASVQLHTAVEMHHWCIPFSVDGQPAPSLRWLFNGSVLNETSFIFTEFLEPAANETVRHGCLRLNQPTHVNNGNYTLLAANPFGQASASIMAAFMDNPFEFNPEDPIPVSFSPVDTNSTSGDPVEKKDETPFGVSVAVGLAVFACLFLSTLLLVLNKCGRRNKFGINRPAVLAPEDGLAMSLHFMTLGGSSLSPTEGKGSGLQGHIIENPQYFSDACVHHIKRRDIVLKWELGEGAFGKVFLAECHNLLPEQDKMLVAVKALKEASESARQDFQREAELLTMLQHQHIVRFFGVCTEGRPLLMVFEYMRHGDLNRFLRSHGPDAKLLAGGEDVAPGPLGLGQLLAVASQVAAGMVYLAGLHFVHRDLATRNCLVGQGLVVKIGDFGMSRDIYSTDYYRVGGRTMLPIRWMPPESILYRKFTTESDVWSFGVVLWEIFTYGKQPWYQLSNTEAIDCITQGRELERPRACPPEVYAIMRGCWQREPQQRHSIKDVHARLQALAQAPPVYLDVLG
Description: as §1
as §1, with “and different forms of” for “and”

[2] = tested on: NONcNZO-10 polygenic obese mice; test: Pegylated NT-4/5 cysteine mutant on body weight, food intake, glucose, triglyceride in NONcNZO-10 mice (Example 6); format: in vivo; conditions: single subcutaneous injection of 1 mg/kg
Protocol: Test animals: 30 male NONcNZO-10 polygenic obese mice at 10 weeks of age weighing in the range of 27-32 g were used in this study.
Administration of NT-4/5 and pegylated NT-4/5: The mice were divided into 4 groups of equivalent body weight distribution (7-8 mice per group). Each group received on the first day (day 1) of the study one and the only dose of either vehicle alone, 1 mg/kg of NT-4/5 or 1 mg/kg of PEG-NT4-S50C, respectively. A final group received a daily subcutaneous dose of 1 mg/kg of NT-4/5 from day 1 to day 5, then from day 7 to day 9. On day 9 after the treatment started, blood samples were collected to determine serum glucose and triglyceride levels. Body weight and food intake were monitored 5 days a week through out the entire study.

human TrkB = target: T4, human TrkB (Homo sapiens, UniProt Q16620); test: Receptor tyrosine phosphorylation (KIRA) in TrkB expressing cell line; format: cell-based
T4 construct: expressed in transfected cells
T4 sequence (Q16620 32-822): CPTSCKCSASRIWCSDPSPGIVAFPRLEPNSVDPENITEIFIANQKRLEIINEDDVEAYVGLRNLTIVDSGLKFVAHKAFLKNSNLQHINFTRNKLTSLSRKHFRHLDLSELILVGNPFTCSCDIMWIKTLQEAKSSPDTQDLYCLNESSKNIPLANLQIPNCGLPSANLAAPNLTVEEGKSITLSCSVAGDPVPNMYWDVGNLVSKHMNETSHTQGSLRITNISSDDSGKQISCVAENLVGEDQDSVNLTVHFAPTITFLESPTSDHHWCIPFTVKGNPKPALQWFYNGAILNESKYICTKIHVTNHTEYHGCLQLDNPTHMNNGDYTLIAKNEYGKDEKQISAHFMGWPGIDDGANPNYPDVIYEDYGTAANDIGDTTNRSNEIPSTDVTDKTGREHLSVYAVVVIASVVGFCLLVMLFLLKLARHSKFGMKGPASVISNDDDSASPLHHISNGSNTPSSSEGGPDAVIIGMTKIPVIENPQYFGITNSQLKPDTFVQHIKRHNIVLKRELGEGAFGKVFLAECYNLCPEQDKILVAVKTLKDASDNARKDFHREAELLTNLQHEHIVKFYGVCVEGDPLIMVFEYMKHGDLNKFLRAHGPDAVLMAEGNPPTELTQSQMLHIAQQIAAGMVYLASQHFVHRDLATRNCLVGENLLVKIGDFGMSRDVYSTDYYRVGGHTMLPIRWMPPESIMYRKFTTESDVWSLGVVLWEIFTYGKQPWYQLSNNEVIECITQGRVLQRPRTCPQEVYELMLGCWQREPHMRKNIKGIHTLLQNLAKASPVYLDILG
Description: Method of making pegylated NT-4/5 (S50C): The native form of NT-4/5 used in this study was produced according to the method described in U.S. Pat. No. 6,184,360. A site-directed pegylated NT-4/5 was also produced. The structure of NT-4/5 in complex with domain 5 of TrkB was examined to find amino acid side chains that would be surface available and unlikely to interfere with natural disulfide bonds and also unlikely to interfere in either the interactions between the monomer subunits of NT-4/5 or the TrkB domain 5 to create a PEG attaching site. […] […] Mutant proteins were expressed in E. coli, solubilized, extracted, purified and refolded as the native NT-4/5. To pegylate the refolded NT4-S50C, NT4-Q105C, and NT-4-E67C, first a mild reduction with 0.1 mM DTT (dithiothreitol) was performed. Excess DTT was removed by dialysis against 50 mM sodium acetate at pH 6, then a 5 molar excess of mPEG-maleimide (M. W. of 10,000 Da, SunBio, Inc., South Korea) was incubated with the protein at 37° C. for several days with gentle agitation. Pegylated protein, non-pegylated protein and unreacted PEG were separated via ion exchange or size exclusion chromatography.
as §1
as §1, with “and different forms of” for “and”

DIO mice [3] = test: Weekly intravenous pegylated G1S NT-4/5 versus WT NT-4/5 on body weight and food intake in DIO mice (Example 8); format: in vivo
Description: as §2, with “29” for “22”, “weaning,” for “weaning”
Administration of NT-4/5 and pegylated NT-4/5: NT-4/5 was obtained from Genentech Inc. or produced as described in U.S. Pat. No. 6,184,360. Pegylated NT-4/5 was produced as follows: A mutation was introduced by changing the glycine 1 position of mature human NT-4/5 sequence to serine, resulting in a mutant form of NT-4/5 (NT4-G1S). NT4-G1S protein was expressed in E. coli, solubilized, extracted, purified and refolded as described above. Refolded NT4-G1S was dialyzed into 50 mM sodium phosphate buffer at pH 6.8 and treated with 1.5 molar excess sodium meta-periodate for 10 minutes to oxidize the N-terminal serine (or threonine) residue to an aldehyde. Remaining periodate was removed by dialysis against 30 mM sodium acetate at pH 4.5. The exact concentration of NT4-G1S was determined and a 2 to 4 fold molar excess of 20K-m-PEG-HZ (methoxy polyethylene glycol hydrazide) was added. The reaction was incubated at 37° C. for several days with gentle agitation. Unconjugated PEG, pegylated NT4-G1S and non-pegylated NT4-G1S were separated via ion exchange or size exclusion chromatography.
The mice were divided into 3 groups of equivalent body weight and baseline blood glucose distribution (7-8 mice per group). Each group received four weekly intravenous doses (on day 1, 8, 15 and 22) of either vehicle, 2 mg/kg of NT-4/5 or 2 mg/kg of pegylated G1S NT-4/5 respectively. Body weight and food intake were monitored 5 days per week through out the entire study.

Molecule: NGF: nerve growth factor, control [reference compound]
- Kd (p75NTR): 2 nM

Molecule: NT-3: neurotrophin-3, control activating trkC expressing cells [reference compound]
- receptor tyrosine phosphorylation of trkC-expressing cell line (human TrkC): activated trkC expressing cells
- Kd (p75NTR): 2 nM

B1: BDNF: recombinant human brain-derived neurotrophic factor from PeproTech Inc. (protein, UniProt P23560 19-247, looked up)
Neurotrophic factor BDNF …: APMKEANIRGQGGLAYPGVRTHGTLESVNGPKAGSRGLTSLADTFEHVIEELLDEDQKVRPNEENNKDADLYTSRVMLSSQVPLEPPLLFLLEEYKNYLDAANMSMRVRRHSDPARRGELSVCDSISEWVTAADKKTAVDMSGGTVTVLEKVPVSKGQLKQYFYETKCNPMGYTKEGCRGIDKRHWNSQCRTTQSYVRALTMDSKKRIGWRFIRIDTSCVCTLTIKRGR
- body weight on day 2 (DIO mice [1]): did not significantly reduce body weigh
- food intake on day 2 (DIO mice [1]): did not significantly reduce food intake
- Kd (p75NTR): 2 nM

B2: PEG-NT4-S50C: human NT-4/5 with serine 50 changed to cysteine, pegylated with mPEG-maleimide (10,000 Da) (conjugate)
chain: GVSETAPASRRGELAVCDAVSGWVTDRRTAVDLRGREVEVLGEVPAAGGCPLRQYFFETRCKADNAEEGGPGAGGGGCRGVDRRHWVSECKAKQSYVRALTADAQGRVGWRWIRIDTACVCTLLSRTGRA
- receptor tyrosine phosphorylation of trkC-expressing cell line (human TrkC): did not increase receptor tyrosine phosphorylation
- receptor tyrosine phosphorylation of trkA-expressing cell line (human TrkA): did not increase receptor tyrosine phosphorylation
- body weight [2]: significantly reduced
- food intake [2]: significantly reduced
- blood glucose level ([2]; day 9): did not significantly reduce
- triglyceride level ([2]; day 9): did not significantly reduce
- receptor tyrosine phosphorylation of TrkB-expressing cell line (human TrkB): increased receptor tyrosine phosphorylation

B3: pegylated G1S NT-4/5: NT4-G1S (glycine 1 to serine) pegylated with 20K-m-PEG-HZ; 1PEG or 2PEG form not stated (conjugate, UniProt P34130 81-210, looked up, variant G1S)
Neurotrophin-4: SVSETAPASRRGELAVCDAVSGWVTDRRTAVDLRGREVEVLGEVPAAGGSPLRQYFFETRCKADNAEEGGPGAGGGGCRGVDRRHWVSECKAKQSYVRALTADAQGRVGWRWIRIDTACVCTLLSRTGRA
modifications: 20K-m-PEG-HZ
- body weight after the first single dose (DIO mice [3]; 2 mg/kg i.v.): more effective in reducing body weight
- food intake after the first single dose (DIO mice [3]; 2 mg/kg i.v.): more effective in reducing food intake than WT NT-4/5
- body weight, pairwise difference with the vehicle control group (DIO mice [3]; 2 mg/kg i.v. on day 1, 8, 15, 22, Bonferroni posttests): significant pairwise differences
- time to body weight recovery after each weekly dosing (DIO mice [3]; 2 mg/kg i.v. weekly): 3 to 4 days
